These results are taken from paper PMC5378476, “Mechanism of ribosome rescue by ArfA and RF2” (eLife, 2017).

This experiment has as its target T1, release factor RF2 (E. coli K12, UniProt P07012 1-365).
T1 construct: Peptide chain release factor RF2, E. coli K12 strain; SPF motif at 205-207, GGQ motif at 250-252, switch loop aa 315-323; source: purified as described (Korostelev et al., 2008; Laurberg et al., 2008)
T1 sequence: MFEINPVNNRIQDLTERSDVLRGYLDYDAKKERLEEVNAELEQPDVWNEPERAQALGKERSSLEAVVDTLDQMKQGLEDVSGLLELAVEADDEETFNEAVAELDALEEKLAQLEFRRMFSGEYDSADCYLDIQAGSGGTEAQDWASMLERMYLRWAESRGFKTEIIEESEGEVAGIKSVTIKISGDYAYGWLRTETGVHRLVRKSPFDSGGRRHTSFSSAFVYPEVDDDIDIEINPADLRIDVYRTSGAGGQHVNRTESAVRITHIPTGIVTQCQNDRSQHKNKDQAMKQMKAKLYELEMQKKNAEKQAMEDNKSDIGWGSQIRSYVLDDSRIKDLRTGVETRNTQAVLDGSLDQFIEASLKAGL
The experiment can be described thus: cryo-EM structure; 70S•mRNA•tRNAfMet•ArfA•RF2 complex reconstituted in vitro from 30S and 50S subunits, mRNA truncated after the P-site AUG; 20 mM Tris-HCl pH 7.0, 100 mM NH4Cl, 20 mM MgCl2, 0.5 mM EDTA, 6 mM βME; on grids ~0.45 µM 70S, 10 µM ArfA, 10 µM RF2; two classes (Structure I, compact RF2; Structure II, extended RF2) from one dataset. Conditions: both partners purified.

B1: ArfA (alternative rescue factor A) (natural protein, E. coli, UniProt P36675 1-60, looked up)
chain: MSRYQHTKGQIKDNAIEALLHDPLFRQRVEKNKKGKGSYMRKGKHGNRGNWEASGKKVNH
notes: ArfA, E. coli, gene from the ASKA Clone(-) library; the forward primer starts at the first ATG of the gene after the His6 codons, the reverse primer ends at the codon of residue 60; The natural protein is longer than 60 residues; the construct is cut short at the C-terminus; No density for the His6 tag in the maps; source: E. coli BLR/DE3, pET24b+, purified (Ni-NTA, ion exchange, size exclusion); …
Consider B1, for which the binding result was “binds”.
